# According to PMC1807957:
# Positions count from the first letter of the chain named.
# T1: POLγB-VV (UniProt Q9UHN1 26-485, V119A;V125A)
# T1 sequence: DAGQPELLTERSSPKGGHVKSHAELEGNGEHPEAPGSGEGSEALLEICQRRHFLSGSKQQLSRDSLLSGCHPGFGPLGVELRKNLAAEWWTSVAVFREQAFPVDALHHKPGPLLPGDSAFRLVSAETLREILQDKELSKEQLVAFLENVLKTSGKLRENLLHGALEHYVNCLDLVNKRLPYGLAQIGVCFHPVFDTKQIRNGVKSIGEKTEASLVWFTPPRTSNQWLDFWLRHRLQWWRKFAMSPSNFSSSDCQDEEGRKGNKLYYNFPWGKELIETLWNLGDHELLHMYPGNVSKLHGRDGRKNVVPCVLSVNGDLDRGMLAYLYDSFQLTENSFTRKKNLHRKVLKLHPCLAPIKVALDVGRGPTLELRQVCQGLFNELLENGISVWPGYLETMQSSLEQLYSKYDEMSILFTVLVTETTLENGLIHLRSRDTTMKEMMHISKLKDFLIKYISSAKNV
# T2: POLγB wild type (accessory subunit of DNA polymerase γ) (UniProt Q9UHN1 26-485)
# T2 sequence: T1 sequence with A94V, A100V
# T3: POLγB-RKK (UniProt Q9UHN1 26-485, R363A;K364A;K365A)
# T3 sequence: T1 sequence with A94V, A100V, R338A, K339A, K340A
# T4: POLγB-RK (UniProt Q9UHN1 26-485, R328A;K329A)
# T4 sequence: T1 sequence with A94V, A100V, R303A, K304A
# B1: primed DNA template (35-mer/20-mer) (mixed)
# DNA 1: TTTTTTTTTTATCCGGGCTCCTCTAGACTCGACCG
# DNA 2: CGGTCGAGTCTAGAGGAGCC
# B2: 50-bp dsDNA probe (dsDNA)
# DNA 1: GGCGTATATCCAAATTAAAAGCATTTTTGATTGCATATATATCATCAGCT
# DNA 2: AGCTGATGATATATATGCAATCAAAAATGCTTTTAATTTGGATATACGCC
# How the values were obtained:
# [1] = molecular target: POLγA (catalytic subunit of DNA polymerase γ) (UniProt P54098 26-1239); assay: EMSA
# Chain of POLγA (catalytic subunit of DNA polymerase γ) (P54098 26-1239): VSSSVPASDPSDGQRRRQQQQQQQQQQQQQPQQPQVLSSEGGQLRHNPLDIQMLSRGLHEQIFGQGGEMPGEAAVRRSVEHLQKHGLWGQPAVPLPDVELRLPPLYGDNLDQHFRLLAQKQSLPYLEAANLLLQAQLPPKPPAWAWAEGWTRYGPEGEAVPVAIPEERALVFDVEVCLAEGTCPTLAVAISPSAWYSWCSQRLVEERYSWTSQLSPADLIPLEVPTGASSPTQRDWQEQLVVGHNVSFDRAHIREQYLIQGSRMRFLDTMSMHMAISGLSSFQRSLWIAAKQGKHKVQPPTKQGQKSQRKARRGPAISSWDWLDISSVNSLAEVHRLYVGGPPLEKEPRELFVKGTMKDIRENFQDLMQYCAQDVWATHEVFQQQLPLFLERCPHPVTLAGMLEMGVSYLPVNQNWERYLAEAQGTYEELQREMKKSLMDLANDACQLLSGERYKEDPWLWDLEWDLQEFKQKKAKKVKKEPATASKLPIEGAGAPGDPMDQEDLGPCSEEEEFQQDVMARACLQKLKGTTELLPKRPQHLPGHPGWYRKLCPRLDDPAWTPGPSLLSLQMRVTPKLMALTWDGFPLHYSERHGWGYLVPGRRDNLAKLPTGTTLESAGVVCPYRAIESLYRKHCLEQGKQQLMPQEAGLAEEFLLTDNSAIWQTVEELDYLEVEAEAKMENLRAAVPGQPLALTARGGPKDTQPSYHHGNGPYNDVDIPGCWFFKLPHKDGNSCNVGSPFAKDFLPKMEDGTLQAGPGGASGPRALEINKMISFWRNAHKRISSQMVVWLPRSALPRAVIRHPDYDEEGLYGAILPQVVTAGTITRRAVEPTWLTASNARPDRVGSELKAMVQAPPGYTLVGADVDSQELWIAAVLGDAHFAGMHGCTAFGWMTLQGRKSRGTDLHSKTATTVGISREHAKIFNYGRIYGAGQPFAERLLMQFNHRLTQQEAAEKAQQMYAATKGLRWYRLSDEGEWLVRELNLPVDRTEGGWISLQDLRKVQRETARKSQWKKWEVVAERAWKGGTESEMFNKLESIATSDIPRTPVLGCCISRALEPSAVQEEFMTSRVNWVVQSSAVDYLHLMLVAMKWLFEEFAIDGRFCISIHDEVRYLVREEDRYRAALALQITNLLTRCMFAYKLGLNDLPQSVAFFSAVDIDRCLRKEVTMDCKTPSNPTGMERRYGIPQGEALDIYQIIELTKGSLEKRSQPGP
# [2] = molecular target: POLγA (catalytic subunit of DNA polymerase γ);POLγB-VV (Homo sapiens?;Homo sapiens?, UniProt P54098;Q9UHN1 26-1239;26-485, |V119A;V125A); assay: EMSA supershift
# Chain of POLγA (catalytic subunit of DNA polymerase γ);POLγB-VV (P54098 26-1239, stated change not applied, one chain of several): as the sequence (P54098 26-1239) above
# [3] = molecular target: POLγA (catalytic subunit of DNA polymerase γ);POLγB-RKK (Homo sapiens?;Homo sapiens?, UniProt P54098;Q9UHN1 26-1239;26-485, |R363A;K364A;K365A); assay: EMSA, competitor challenge
# Chain of POLγA (catalytic subunit of DNA polymerase γ);POLγB-RKK (P54098 26-1239, stated change not applied, one chain of several): as the sequence (P54098 26-1239) above
# [4] = molecular target: POLγA (catalytic subunit of DNA polymerase γ);POLγB-RK (Homo sapiens?;Homo sapiens?, UniProt P54098;Q9UHN1 26-1239;26-485, |R328A;K329A); assay: EMSA, competitor challenge
# Chain of POLγA (catalytic subunit of DNA polymerase γ);POLγB-RK (P54098 26-1239, stated change not applied, one chain of several): as the sequence (P54098 26-1239) above
# POLγB-VV = molecular target: T1, POLγB-VV; assay: EMSA
# [5] = molecular target: T2, POLγB wild type (accessory subunit of …); assay: EMSA
# POLγB-RKK = molecular target: T3, POLγB-RKK; assay: EMSA
# POLγB-RK = molecular target: T4, POLγB-RK; assay: EMSA
Binder,binding result [1],binding result [2],binding result [3],binding result [4],binding result (POLγB-VV),binding result [5],binding result (POLγB-RKK),binding result (POLγB-RK)
B1,binds,binds,binds,binds,–,–,–,–
B2,–,–,–,–,binds,binds,no binding,no binding
